This assay concerns the target CaMKIIα (UniProt P11275 1-478). The assay can be described thus: fluorescence polarisation.

By Kd is commonly meant the free concentration of one partner at which half of the binding sites on the other are occupied at equilibrium, for simple one-to-one binding.

CaMKIIα, sequence (P11275 whole entry): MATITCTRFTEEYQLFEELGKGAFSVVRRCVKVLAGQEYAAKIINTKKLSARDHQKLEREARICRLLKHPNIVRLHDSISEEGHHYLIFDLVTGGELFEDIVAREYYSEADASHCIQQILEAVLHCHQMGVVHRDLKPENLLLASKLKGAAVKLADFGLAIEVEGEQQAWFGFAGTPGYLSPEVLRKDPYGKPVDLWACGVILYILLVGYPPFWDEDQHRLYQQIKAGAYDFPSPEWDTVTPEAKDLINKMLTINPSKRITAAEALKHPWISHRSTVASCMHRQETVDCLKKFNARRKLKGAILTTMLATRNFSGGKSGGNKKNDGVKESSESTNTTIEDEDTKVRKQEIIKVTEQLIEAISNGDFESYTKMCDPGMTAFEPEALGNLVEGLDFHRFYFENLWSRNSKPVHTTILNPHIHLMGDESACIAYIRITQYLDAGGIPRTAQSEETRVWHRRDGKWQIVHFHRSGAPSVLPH

Molecule TVGKFYATFLIQEYFR [IQ peptide TVGKFYATFLIQEYFR of Cav1.2/Cav1.3] yielded a Kd of 31 ± 7 nM.

Values taken from PMC7031110 (Cell, 2014).
